Positions count from the first letter of the chain named. Names may count otherwise.
T1: SipD (residues 39-343, C244S) (Salmonella typhimurium strain SL1344, UniProt Q56026 39-343, C244S)
T1 sequence: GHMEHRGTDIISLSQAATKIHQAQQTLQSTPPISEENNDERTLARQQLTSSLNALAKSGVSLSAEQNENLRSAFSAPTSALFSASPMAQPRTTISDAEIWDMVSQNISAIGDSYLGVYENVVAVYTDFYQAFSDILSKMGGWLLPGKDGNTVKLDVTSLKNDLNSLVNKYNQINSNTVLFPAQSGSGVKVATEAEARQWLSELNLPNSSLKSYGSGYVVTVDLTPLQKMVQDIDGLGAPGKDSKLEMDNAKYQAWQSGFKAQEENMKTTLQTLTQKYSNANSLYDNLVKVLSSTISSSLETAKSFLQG

B1: SipB^82-312 D207C, MTSL spin-labeled (domain or fragment)
chain: EGQLTLLLGKLMTLLGDVSLSQLESRLAVWQAMIESQKEMGIQVSKEFQTALGEAQEATDLYEASIKKTDTAKSVYDAATKKLTQAQNKLQSLDPADPGYAQAEAAVEQAGKEATEAKEALDKATCATVKAGTDAKAKAEKADNILTKFQGTANAASQNQVSQGEQDNLSNVARLTMLMAMFIEIVGKNTEESLQNDLALFNALQEGRQAEMEKKSAEFQEETRKAEETNR
modifications: MTSL nitroxide spin label on the engineered cysteine at 207
B2: SipB^82-312 Asn-283 cysteine mutant, MTSL spin-labeled (domain or fragment)
chain: B1 chain with C126D, N202C
modifications: MTSL nitroxide spin label on the engineered cysteine at 283
B3: SipB^82-312 Lys-211 cysteine mutant, MTSL spin-labeled (domain or fragment)
chain: B1 chain with C126D, K130C
modifications: MTSL nitroxide spin label on the engineered cysteine at 211

Each binder was assayed against T1, SipD (residues 39-343, C244S) (assay: NMR paramagnetic relaxation enhancement).

Row | Binder | binding result
1 | B1 | binds
2 | B2 | binds
3 | B3 | binds

From paper PMC4918631 (Chembiochem : a European journal of chemical biology, 2016)
